Experimental findings from paper PMC11417369, “DNA sequence and chromatin differentiate sequence-specific transcription factor binding in the human malaria parasite Plasmodium falciparum” are described below.

B1: GTGCAC_site9562 (dsDNA)
DNA 1: ACATTTAAATAATATGTGCACAGCTATATTTTCTTT
DNA 2: AAAGAAAATATAGCTGTGCACATATTATTTAAATGT
B2: GTGCAC_negctrl_site532 (dsDNA)
DNA 1: AATAATTTTTAAATATAAACATTTTTTTTTTTTTTT
DNA 2: AAAAAAAAAAAAAAATGTTTATATTTAAAAATTATT
B3: GTGCAC_site10129 (dsDNA)
DNA 1: GCATATGTATATAATGTGCACATGGATTATATAAAA
DNA 2: TTTTATATAATCCATGTGCACATTATATACATATGC
B4: GTGCAC_site10721 (dsDNA)
DNA 1: ATATTATATCTAATCGTGCACAACTGTACATTTGTC
DNA 2: GACAAATGTACAGTTGTGCACGATTAGATATAATAT
B5: GTGCAC_negctrl_site507 (dsDNA)
DNA 1: ATGTTGTTCATAAATATATTATTTTTAAATGTACAA
DNA 2: TTGTACATTTAAAAATAATATATTTATGAACAACAT
B6: GTGCAC_negctrl_site20 (dsDNA)
DNA 1: TAGTTCCTCAAAAATTTCCTTTGTCATTTTATTCAC
DNA 2: GTGAATAAAATGACAAAGGAAATTTTTGAGGAACTA
B7: GTGCAC_negctrl_site681 (dsDNA)
DNA 1: AAAGGTAAATGTAAATAAATAAATAATAAATATATA
DNA 2: TATATATTTATTATTTATTTATTTACATTTACCTTT
B8: GTGCAC_negctrl_site213 (dsDNA)
DNA 1: TTTAATCAATGATTTAATGAAAAAAGCAAAAAAAAA
DNA 2: TTTTTTTTTGCTTTTTTCATTAAATCATTGATTAAA
B9: GTGCAC_negctrl_site710 (dsDNA)
DNA 1: AATATATTTTAGAGTTTTATATATTTTATGCATATA
DNA 2: TATATGCATAAAATATATAAAACTCTAAAATATATT
B10: GTGCAC_site10365 (dsDNA)
DNA 1: TTTCAATTTATCAGTGTGCACAAAAATAAAATAAAA
DNA 2: TTTTATTTTATTTTTGTGCACACTGATAAATTGAAA
B11: GTGCAC_site9953 (dsDNA)
DNA 1: ATATATCTTTATATAGTGCATTAAATATGTTGTAAT
DNA 2: ATTACAACATATTTAATGCACTATATAAAGATATAT
B12: GTGCAC_negctrl_site596 (dsDNA)
DNA 1: TTTTTTATTTTATTTTATTTTTATTTTTTTTTTTTT
DNA 2: AAAAAAAAAAAAATAAAAATAAAATAAAATAAAAAA
B13: GTGCAC_negctrl_site465 (dsDNA)
DNA 1: AAAAAATGTAAATATAAACAACCAAAGGGGGTATAC
DNA 2: GTATACCCCCTTTGGTTGTTTATATTTACATTTTTT
B14: GTGCAC_negctrl_site640 (dsDNA)
DNA 1: AGAAATATGTTGAAGCATTTATAATGTAGATATAAG
DNA 2: CTTATATCTACATTATAAATGCTTCAACATATTTCT
B15: GTGCAC_negctrl_site551 (dsDNA)
DNA 1: AAAAGGAATATAATCATTCAAAAATATAATATATAT
DNA 2: ATATATATTATATTTTTGAATGATTATATTCCTTTT
B16: GTGCAC_negctrl_site486 (dsDNA)
DNA 1: TATTTATTATGATACTCATATTATTCTATGATTAAA
DNA 2: TTTAATCATAGAATAATATGAGTATCATAATAAATA
B17: GTGCAC_site10622 (dsDNA)
DNA 1: TATTATTCAAAATTTGTGCACAAAATTAAAGGAACA
DNA 2: TGTTCCTTTAATTTTGTGCACAAATTTTGAATAATA
B18: GTGCAC_negctrl_site358 (dsDNA)
DNA 1: TACTGTATTATAATTATGATTGACGAAATTAAAAAT
DNA 2: ATTTTTAATTTCGTCAATCATAATTATAATACAGTA
B19: GTGCAC_negctrl_site549 (dsDNA)
DNA 1: TTTTTTATAGTACATTACCAAAAAAAAAAAAAAAAA
DNA 2: TTTTTTTTTTTTTTTTTGGTAATGTACTATAAAAAA
B20: GTGCAC_negctrl_site17 (dsDNA)
DNA 1: TTTTTTTTTTTTTTTTTTTTCTTCATTTAATTTATA
DNA 2: TATAAATTAAATGAAGAAAAAAAAAAAAAAAAAAAA
B21: GTGCAC_negctrl_site622 (dsDNA)
DNA 1: TTTTGAATATATTAAATAAATTAAAAATCTACAAAC
DNA 2: GTTTGTAGATTTTTAATTTATTTAATATATTCAAAA
B22: GTGCAC_site9510 (dsDNA)
DNA 1: TGTTTATTTATTTGTGTGCACTCAGATTATATTATA
DNA 2: TATAATATAATCTGAGTGCACACAAATAAATAAACA
B23: GTGCAC_site10117 (dsDNA)
DNA 1: AATAACTATATATGTGTGCACAAAAATTTGACATAA
DNA 2: TTATGTCAAATTTTTGTGCACACATATATAGTTATT
B24: GTGCAC_site9776 (dsDNA)
DNA 1: TTTATATATTTTGTCGTGCACATTTGGAAAATTACA
DNA 2: TGTAATTTTCCAAATGTGCACGACAAAATATATAAA
B25: GTGCAC_negctrl_site230 (dsDNA)
DNA 1: TGTTGTTATAAAAAAAAAAAAAAAAAAAAAAAAAAA
DNA 2: TTTTTTTTTTTTTTTTTTTTTTTTTTTATAACAACA
B26: GTGCAC_negctrl_site352 (dsDNA)
DNA 1: TTTTTTTTTTTTTTTTTTTTCACATGTGTGGAAAAA
DNA 2: TTTTTCCACACATGTGAAAAAAAAAAAAAAAAAAAA
B27: GTGCAC_negctrl_site275 (dsDNA)
DNA 1: ATATTTTATCATGTTTAATATTTATGTGGACATAAA
DNA 2: TTTATGTCCACATAAATATTAAACATGATAAAATAT
B28: GTGCAC_negctrl_site448 (dsDNA)
DNA 1: TCTTTTTAAATTACTATAATACATTCATAAATTATA
DNA 2: TATAATTTATGAATGTATTATAGTAATTTAAAAAGA
B29: GTGCAC_negctrl_site151 (dsDNA)
DNA 1: TTTGTTCTATGGAGTTTAAAATGTAATATATATTAA
DNA 2: TTAATATATATTACATTTTAAACTCCATAGAACAAA
B30: GTGCAC_negctrl_site10 (dsDNA)
DNA 1: TGCCATATATATATTAAATACATAATAATGAGCCTA
DNA 2: TAGGCTCATTATTATGTATTTAATATATATATGGCA
B31: GTGCAC_site10686 (dsDNA)
DNA 1: TATCCATTTCTTTATGTGCACATTAAATATATTTGT
DNA 2: ACAAATATATTTAATGTGCACATAAAGAAATGGATA
B32: GTGCAC_negctrl_site362 (dsDNA)
DNA 1: TATTATATCTTATATGTATATTCCCACAAATTATAT
DNA 2: ATATAATTTGTGGGAATATACATATAAGATATAATA
B33: GTGCAC_negctrl_site655 (dsDNA)
DNA 1: TCTTTTAACAAATAATAAGCTAATTTATATTATTAT
DNA 2: ATAATAATATAAATTAGCTTATTATTTGTTAAAAGA
B34: GTGCAC_negctrl_site354 (dsDNA)
DNA 1: ATAAATTGAAGTAAATTTGACCTTTTTTTTTTTTTT
DNA 2: AAAAAAAAAAAAAAGGTCAAATTTACTTCAATTTAT
B35: GTGCAC_site9580 (dsDNA)
DNA 1: ATTTTTATTTTTTTTGTGCACATTTTCATTTTCTAT
DNA 2: ATAGAAAATGAAAATGTGCACAAAAAAAATAAAAAT
B36: GTGCAC_site10155 (dsDNA)
DNA 1: TTGATAAAATCACTGGTGCATGTAGATATATAATAT
DNA 2: ATATTATATATCTACATGCACCAGTGATTTTATCAA
B37: GTGCAC_site10773 (dsDNA)
DNA 1: TATATATATATAATTGTGCACATAATTTTAAACCAA
DNA 2: TTGGTTTAAAATTATGTGCACAATTATATATATATA
B38: GTGCAC_negctrl_site541 (dsDNA)
DNA 1: TCCCCCTTTTTTTGATTTTTATCTTAATTCTAAAAG
DNA 2: CTTTTAGAATTAAGATAAAAATCAAAAAAAGGGGGA

The target of one data set is T1, HDP1 homeodomain-like (Plasmodium falciparum, UniProt Q8IKH4 2990-3078).
T1 sequence: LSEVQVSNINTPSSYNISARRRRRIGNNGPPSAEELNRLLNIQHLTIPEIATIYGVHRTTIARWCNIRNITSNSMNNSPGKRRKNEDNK
Kind of data set: gcPBM; about 25 ug protein; PBS, 1% milk, 0.2 mg/ml BSA, salmon testes DNA, 0.03% Triton X-100. The settings on record: tags: N-terminal GST (pGEX-4T-1), kept; chain copies: 2; label: surface-attached array probe.
On to B1, for which the binding signal was 10.9 ln median PBM intensity, better of two orientations.

Consider B2, for which the binding signal is 6.29 ln median PBM intensity, better of two orientations.

Take B3: the binding signal is 11.2 ln median PBM intensity, better of two orientations.

In the case of B4, the binding signal is 9.73 ln median PBM intensity, better of two orientations.

For the molecule B5, the binding signal was 6.37 ln median PBM intensity, better of two orientations.

As for B6, the binding signal is 6.25 ln median PBM intensity, better of two orientations.

Take B7: the binding signal is 6.27 ln median PBM intensity, better of two orientations.

B8: the binding signal was 6.34 ln median PBM intensity, better of two orientations.

As to B9, the binding signal is 6.25 ln median PBM intensity, better of two orientations.

In the case of B10, the binding signal is 11.4 ln median PBM intensity, better of two orientations.

For B11, the binding signal was 8.99 ln median PBM intensity, better of two orientations.

For the molecule B12, the binding signal is 6.26 ln median PBM intensity, better of two orientations.

Take B13: the binding signal was 6.37 ln median PBM intensity, better of two orientations.

For B14, the binding signal is 6.35 ln median PBM intensity, better of two orientations.

On to B15, for which the binding signal is 6.36 ln median PBM intensity, better of two orientations.

For the molecule B16, the binding signal is 6.33 ln median PBM intensity, better of two orientations.

For B17, the binding signal was 11.1 ln median PBM intensity, better of two orientations.

As to B18, the binding signal is 6.33 ln median PBM intensity, better of two orientations.

As for B19, the binding signal is 6.26 ln median PBM intensity, better of two orientations.

Turning to B20, the binding signal is 6.26 ln median PBM intensity, better of two orientations.

Consider B21, for which the binding signal is 6.24 ln median PBM intensity, better of two orientations.

For the molecule B22, the binding signal is 11.3 ln median PBM intensity, better of two orientations.

Consider B23, for which the binding signal is 11.2 ln median PBM intensity, better of two orientations.

For B24, the binding signal was 8.92 ln median PBM intensity, better of two orientations.

For B25, the binding signal was 6.26 ln median PBM intensity, better of two orientations.

Take B26: the binding signal was 6.23 ln median PBM intensity, better of two orientations.

As for B27, the binding signal is 6.34 ln median PBM intensity, better of two orientations.

In the case of B28, the binding signal is 6.3 ln median PBM intensity, better of two orientations.

B29: the binding signal was 6.25 ln median PBM intensity, better of two orientations.

Turning to B30, the binding signal is 6.22 ln median PBM intensity, better of two orientations.

For B31, the binding signal was 11.4 ln median PBM intensity, better of two orientations.

For the molecule B32, the binding signal was 6.31 ln median PBM intensity, better of two orientations.

Consider B33, for which the binding signal is 6.28 ln median PBM intensity, better of two orientations.

On to B34, for which the binding signal is 6.29 ln median PBM intensity, better of two orientations.

For B35, the binding signal is 11.3 ln median PBM intensity, better of two orientations.

Regarding B36, the binding signal was 9.06 ln median PBM intensity, better of two orientations.

Consider B37, for which the binding signal was 11.1 ln median PBM intensity, better of two orientations.

On to B38, for which the binding signal is 6.28 ln median PBM intensity, better of two orientations.

In another data set the target is T2, SIP2 D1 (Plasmodium falciparum, UniProt C6KSN9 177-235).
T2 sequence: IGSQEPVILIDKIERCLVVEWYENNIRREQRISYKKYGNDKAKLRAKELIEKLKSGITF
The data set is described as above. The settings on record: tags: N-terminal GST (pGEX-4T-1), kept; label: surface-attached array probe.
As to B1, the binding signal is 9.19 ln median PBM intensity, better of two orientations.

On to B3, for which the binding signal is 9.12 ln median PBM intensity, better of two orientations.

For the molecule B4, the binding signal was 9.08 ln median PBM intensity, better of two orientations.

For the molecule B10, the binding signal is 10.1 ln median PBM intensity, better of two orientations.

As for B11, the binding signal was 8.47 ln median PBM intensity, better of two orientations.

Consider B17, for which the binding signal was 8.92 ln median PBM intensity, better of two orientations.

Take B22: the binding signal is 10.1 ln median PBM intensity, better of two orientations.

Take B23: the binding signal is 9.72 ln median PBM intensity, better of two orientations.

For B24, the binding signal is 9.81 ln median PBM intensity, better of two orientations.

With B31, the binding signal was 8.89 ln median PBM intensity, better of two orientations.

With B35, the binding signal is 9.53 ln median PBM intensity, better of two orientations.

Consider B36, for which the binding signal is 9.7 ln median PBM intensity, better of two orientations.

B37: the binding signal was 9.89 ln median PBM intensity, better of two orientations.
